{
  "source": "patent EP0833843B1",
  "target": "MC1-R (melanocyte-stimulating hormone receptor)",
  "experiment": "inhibition of MC1-R activation by the purified recombinant ASP preparation; assay details not given (Ollmann et al., in preparation)",
  "data": [
    {"substance": "Recombinant mouse agouti signal protein (ASP) (ligand)", "values": [
      {"measurement": "Ki", "result": 0.22, "unit": "nM"}
    ]}
  ]
}
